The source of these data is US20240279315A1 (priority 2023, published 2024).

Where two headings read alike, the source gives them in different places.

Assay [1] relates to influenza A/Anhui/1/2013 (H7N9) virus. On the set-up: species or system BALB/c mice. Particulars: mouse, in vivo.
Assay [2] deals with hemagglutinin (HA) of influenza A/Cambodia/e0826360/2020 H3N2 (influenza A virus A/Cambodia/e0826360/2020 (H3N2)). Kind of assay: cell-based or functional assay.
Assay [3] concerns the target hemagglutinin (HA) of influenza A/Hong Kong/45/2019 H3N2 (influenza A virus A/Hong Kong/45/2019 (H3N2)). Nature of the assay: cell-based or functional assay.
In assay [4] the target is hemagglutinin (HA) of influenza A/Victoria/2570/2019 H1N1 (influenza A virus A/Victoria/2570/2019 (H1N1)). Nature of the assay: cell-based or functional assay.
The target of assay [5] is hemagglutinin (HA) of influenza A/Brisbane/02/2018 H1N1 (influenza A virus A/Brisbane/02/2018 (H1N1)). Nature of the assay: cell-based or functional assay.
Assay [6] addresses hemagglutinin (HA) of influenza B/Colorado/06/2017 B-Vic (influenza B virus B/Colorado/06/2017). Kind of assay: cell-based or functional assay.
In assay [7] the target is hemagglutinin (HA) of influenza A/Kansas/14/2017 H3N2 (influenza A virus A/Kansas/14/2017 (H3N2)). Nature of the assay: cell-based or functional assay.
For assay [8], the target named is hemagglutinin (HA) of influenza A/Cambodia/e0826360/2020 H3N2 (influenza A virus A/Cambodia/e0826360/2020 (H3N2)). Nature of the assay: cell-based or functional assay. The source holds these as a separate data set.
Assay [9] has as its target hemagglutinin (HA) of influenza B/Phuket/3073/2013 B-Yam (influenza B virus B/Phuket/3073/2013). Kind of assay: cell-based or functional assay.
The target in assay [10] is hemagglutinin (HA) of influenza B/Maryland/15/2016 B-Vic (influenza B virus B/Maryland/15/2016). Nature of the assay: cell-based or functional assay.
Assay [11] addresses hemagglutinin (HA) of influenza B/Washington/02/2019 B-Vic (influenza B virus B/Washington/02/2019). Nature of the assay: cell-based or functional assay.
Assay [12] has as its target hemagglutinin (HA) of influenza A/Hong Kong/45/2019 H3N2 (influenza A virus A/Hong Kong/45/2019 (H3N2)). Kind of assay: cell-based or functional assay. The source holds these as a separate data set.
The target in assay [13] is hemagglutinin (HA) of influenza A/Victoria/2570/2019 H1N1 (influenza A virus A/Victoria/2570/2019 (H1N1)). Kind of assay: cell-based or functional assay. This is another data set of the same source.
Assay [14] addresses hemagglutinin (HA) of influenza A/Singapore/INFIMH-16-0019/2016 H3N2 (influenza A virus A/Singapore/INFIMH-16-0019/2016 (H3N2)). Nature of the assay: cell-based or functional assay.
Assay [15] deals with hemagglutinin (HA) of influenza B/California/12/2015 B-Yam (influenza B virus B/California/12/2015). Kind of assay: cell-based or functional assay.
For assay [16], the target named is hemagglutinin (HA) of influenza A/Brisbane/02/2018 H1N1 (influenza A virus A/Brisbane/02/2018 (H1N1)). Kind of assay: cell-based or functional assay. This is another data set of the same source.
Assay [17] addresses hemagglutinin (HA) of influenza B/Colorado/06/2017 B-Vic (influenza B virus B/Colorado/06/2017). Nature of the assay: cell-based or functional assay. The source holds these as a separate data set.
Assay [18] addresses hemagglutinin (HA) of influenza A/Kansas/14/2017 H3N2 (influenza A virus A/Kansas/14/2017 (H3N2)). Kind of assay: cell-based or functional assay. The source holds these as a separate data set.
Assay [19] deals with hemagglutinin (HA) of influenza A/Hawaii/70/2019 (influenza A virus A/Hawaii/70/2019). Nature of the assay: cell-based or functional assay.
In assay [20] the target is hemagglutinin (HA) of influenza B/Phuket/3073/2013 B-Yam (influenza B virus B/Phuket/3073/2013). Nature of the assay: cell-based or functional assay. The source holds these as a separate data set.
For assay [21], the target named is hemagglutinin (HA) of influenza A/Darwin/6/2021 (influenza A virus A/Darwin/6/2021). Kind of assay: cell-based or functional assay.
Assay [22] deals with hemagglutinin (HA) of influenza A/Sydney/5/2021 (influenza A virus A/Sydney/5/2021). Nature of the assay: cell-based or functional assay.
In assay [23] the target is hemagglutinin (HA) of influenza B/Washington/02/2019 B-Vic (influenza B virus B/Washington/02/2019). Nature of the assay: cell-based or functional assay. This is another data set of the same source.
In assay [24] the target is hemagglutinin (HA) of influenza A/Wisconsin/588/2019 (influenza A virus A/Wisconsin/588/2019). Nature of the assay: cell-based or functional assay.
For assay [25], the target named is hemagglutinin (HA) of influenza A/Tasmania/503/2020 (H3N2) (influenza A virus A/Tasmania/503/2020 (H3N2)). Kind of assay: cell-based or functional assay.
In assay [26] the target is hemagglutinin (HA) of influenza B/Austria/1359417/2021 (influenza B virus B/Austria/1359417/2021). Nature of the assay: cell-based or functional assay.
Assay [27] addresses hemagglutinin (HA) of influenza A/Singapore/INFIMH-16-0019/2016 H3N2 (influenza A virus A/Singapore/INFIMH-16-0019/2016 (H3N2)). Kind of assay: cell-based or functional assay. This is another data set of the same source.

In the case of `CCOC(=O)C1=C[C@@H](OC(CC)CC)[C@H](NC(C)=O)[C@@H](N)C1` [oseltamivir], in assay [1], the “protection from challenge (body weight)” value is given as “did show protection from challenge”.
For the molecule SAB-176 Lot 4 (PD2102092QR) (antibody), the HAI titer ratio of SAB-176 to hIVIG is 32 X in assay [2]; 16 to 32 X in assay [3]; 16 to 32 X in assay [4]; 16 to 32 X in assay [5]; 16 to 32 X in assay [6]; 8 to 64 X in assay [7]. Besides, the HAI titer ratio of SAB-176 to hIVIG in assay [8] is 8 to 16 X; in assay [9], 16 X; in assay [10], 16 to 32 X; in assay [11] it was 16 to 32 X; in assay [14], 8 to 32 X; in [15], 16 to 32 X. Moreover, the HAI titer in assay [3] is 256 titer; in assay [5], 512 titer; in assay [6] it was 256 titer; in [7], 256 titer; in [8], 256 titer; in assay [9], 128 titer. Moreover, the HAI titer was 256 titer in assay [10]; 128 titer in assay [11]; 256 titer in assay [13]; 512 titer in assay [14]; 128 titer in [15]; 1280 titer in [16]. In addition, the HAI titer in assay [17] worked out at 160 titer; in assay [18], 320 titer; in assay [19], 905 titer; in [20], 160 titer; in [21], 160 titer; in [22], 320 titer. For the same molecule, the HAI titer in assay [23] amounted to 160 titer; in [24] it was 640 titer; in assay [25], 320 titer; in [26], 40 titer; in assay [27], 640 titer. The figures for the HAI titer of drug product in assay [9], in assay [11] and in assay [12] were 3840 titer, 960 titer and 1920 titer, respectively.
